The values below come from doi:10.1101/2021.02.17.431743 (bioRxiv, 2021).

In this experiment the target is full-length HeV-RBP (Hendra virus receptor binding protein); head, stalk, transmembrane, and cytoplasmic … (Hendra virus, UniProt O89343). In words: flow cytometry on cells.
Chain of full-length HeV-RBP (Hendra virus receptor binding protein); head, stalk, transmembrane, and cytoplasmic … (O89343 whole entry): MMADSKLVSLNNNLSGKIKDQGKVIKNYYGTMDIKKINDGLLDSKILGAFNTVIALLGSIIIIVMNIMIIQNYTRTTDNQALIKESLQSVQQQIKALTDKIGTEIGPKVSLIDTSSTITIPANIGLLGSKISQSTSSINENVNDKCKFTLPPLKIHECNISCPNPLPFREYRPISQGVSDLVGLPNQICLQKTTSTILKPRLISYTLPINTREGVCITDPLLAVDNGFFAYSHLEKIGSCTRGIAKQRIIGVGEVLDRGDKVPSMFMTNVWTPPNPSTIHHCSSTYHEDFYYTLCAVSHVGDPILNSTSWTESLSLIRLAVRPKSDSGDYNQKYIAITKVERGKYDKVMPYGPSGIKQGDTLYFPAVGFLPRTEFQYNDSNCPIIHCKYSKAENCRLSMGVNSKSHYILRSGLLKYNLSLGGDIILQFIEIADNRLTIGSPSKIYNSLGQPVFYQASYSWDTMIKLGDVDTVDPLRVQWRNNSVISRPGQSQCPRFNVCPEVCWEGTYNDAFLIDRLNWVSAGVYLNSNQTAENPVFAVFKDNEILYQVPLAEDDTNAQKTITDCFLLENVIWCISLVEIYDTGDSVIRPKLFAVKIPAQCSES

B1: HENV-117 human monoclonal antibody (antibody, V domains shown)
VH: QVQLQQWGAGLLKPSETLSLTCDLSGGSFTNYYWTWIRHLPGKGLEWLGEINHSGRTNYSPSLKSRVTISVDTSKNQFSLRLSSVTAADTAVYYCARDIRKLAPKPHSYDLYYGMDVWGQGTTVTVSS
VL: EIVLTQSPGTLSLSPGERATLSCRASQSVGSNYLTWYQQKPGQPPRLLIYGASNRAAGIPDRFSGSGSGTDFTLTISRLEPEDFAVYYCQQYETSSRTFGQGTKVDIR
Turning to B1, the binding result is given as “binds”.

B2: HENV-103 human monoclonal antibody (antibody, V domains shown)
VH: QVQLQGSGPGLVKPSQTLSLTCSVSGGSVSRSGYYWGWIRQHPGKGLECIGYIYYSGITYYNPSLSGRLTISVDTSKNQFSLELSSVTAADTAVYYCARVWLGGGVFDFWGQGSLVTVSS
VL: EIVMTQSPATLSVSPGEGATLSCRASQSVSSNLAWYQQKPGQAPRLLIYDASTRATGIPARFSGSGSGTEFTLTISSLQSEDFAVYYCQQYNDWRTFGRGTKVEMR
B2: the binding result was “binds”.
